# Data reported in IntAct's records for PubMed 22665060.
# B1: Tight junction protein 2 (Homo sapiens), Q9UDY2-3 (parent)
# chain: MEELIWEQYTVTLQKDSKRGFGIAVSGGRDNPHFENGETSIVISDVLPGGPADGLLQENDRVVMVNGTPMEDVLHSFAVQQLRKSGKVAAIVVKRPRKVQVAALQASPPLDQDDRAFEVMDEFDGRSFRSGYSERSRLNSHGGRSRSWEDSPERGRPHERARSRERDLSRDRSRGRSLERGLDQDHARTRDRSRGRSLERGLDHDFGPSRDRDRDRSRGRSIDQDYERAYHRAYDPDYERAYSPEYRRGARHDARSRGPRSRSREHPHSRSPSPEPRGRPGPIGVLLMKSRANEEYGLRLGSQIFVKEMTRTGLATKDGNLHEGDIILKINGTVTENMSLTDARKLIEKSRGKLQLVVLRDSQQTLINIPSLNDSDSEIEDISEIESNRSFSPEERRHQYSDYDYHSSSEKLKERPSSREDTPSRLSRMGATPTPFKSTGDIAGTVVPETNKEPRYQEDPPAPQPKAAPRTFLRPSPEDEAIYGPNTKMVRFKKGDSVGLRLAGGNDVGIFVAGIQEGTSAEQEGLQEGDQILKVNTQDFRGLVREDAVLYLLEIPKGEMVTILAQSRADVYRDILACGRGDSFFIRSHFECEKETPQSLAFTRGEVFRVVDTLYDGKLGNWLAVRIGNELEKGLIPNKSRAEQMASVQNAQRDNAGDRADFWRMRGQRSGVKKNLRKSREDLTAVVSVSTKFPAYERVLLREAGFKRPVVLFGPIADIAMEKLANELPDWFQTAKTEPKDAGSEKSTGVVRLNTVRQIIEQDKHALLDVTPKAVDLLNYTQWFPIVIFFNPDSRQGVKTMRQRLNPTSNKSSRKLFDQANKLKKTCAHLFTATINLNSANDSWFGSLKDTIQHQQGEAVWVSEGKMEGMDDDPEDRMSYLTAMGADYLSCDSRLISDFEDTDGEGGAYTDNELDEPAEEPLVSSITRSSEPVQHEESIRKPSPEPRAQMRRAASSDQLRDNSPPPAFKPEPPKAKTQNKEESYDFSKSYEYKSNPSAVAGNETPGASTKGYPPPVAAKPTFGRSILKPSTPIPPQEGEEVGESSEEQDNAPKSVLGKVKIFEKMDHKARLQRMQELQEAQNARIEIAQKHPDIYAVPIKTHKPDPGTPQHTSSRPPEPQKAPSRPYQDTRGSYGSDAEEEEYRQQLSEHSKRGYYGQSARYRDTEL
# partner: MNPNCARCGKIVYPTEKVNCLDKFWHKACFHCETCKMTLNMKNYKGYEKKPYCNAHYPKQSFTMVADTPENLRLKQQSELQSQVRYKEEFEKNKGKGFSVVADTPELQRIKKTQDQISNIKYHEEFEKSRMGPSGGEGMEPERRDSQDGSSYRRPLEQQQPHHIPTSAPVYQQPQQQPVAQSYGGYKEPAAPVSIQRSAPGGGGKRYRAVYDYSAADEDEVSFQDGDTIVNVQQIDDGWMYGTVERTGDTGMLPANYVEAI
# Variants of: B1
# Conditions: with lasp1_human LASP1, Q14847
row,effect of a mutation on the interaction,Variant
1,disrupting interaction strength,P1106A;P1116A
2,decreasing interaction,P1106A
